Test results reported in paper PMC4223631 (Developmental cell, 2014).

Target: rabbit muscle actin (filaments: ADP-F-actin or ADP•BeFx-F-actin) (rabbit, UniProt P68135 1-377)
Experiment: co-sedimentation

B1: cofilin-2 (mouse, recombinant wild type) (natural protein)
chain: MASGVTVNDEVIKVFNDMKVRKSSTQEEIKKRKKAVLFCLSDDKRQIIVEEAKQILVGDIGDTVEDPYTSFVKLLPLNDCRYALYDATYETKESKKEDLVFIFWAPESAPLKSKMIYASSKDAIKKKFTGIKHEWQVNGLDDIKDRSTLGEKLGGSVVVSLEGKPL
Q: Which results are given for B1?
A: KD of a small fraction (~20%) of the cofilin: ~1 µM; KD of the majority of the cofilin: ~5 µM
